Assay results published in PMC8448731 (Nature Communications, 2021).
Numbering of substitutions follows the chain as printed.

B1: GST-tagged SR6v15 (VHH)
VHH: EVQLVESGGGLVQAGDSLRLSCAASGDSYILWRMGWFRQAPGKEREFVAAISLDGQFTNYADSVRGRFSISADSAKYTVYLQMNSLKPEDTAVYYCAALPFLDYWGQGTQVTVSS
notes: not shown: GST, C-terminal, kept
B2: SR6_f3 (VHH)
VHH: B1 VHH with E1Q, E6V, S28C, Y29H, I30V, Q56L, K76E, Y77N, L99M, L102F
B3: SR6_t6 (VHH)
VHH: B1 VHH with E1Q, E6V, S28C, Y29H, I30V, K76E, Y77N
B4: SR6_t9 (VHH)
VHH: B1 VHH with E1Q, E6V, A23T, S28C, Y29H, I30V, R45L, T58A, K76E, Y77N
B5: SR6_t5 (VHH)
VHH: B1 VHH with E1Q, E6V, S28C, Y29H, I30V, Y77N
B6: SR4_t13 (VHH)
VHH: KVQLVVTGRVLVQAGDSLRLSCVATGFQLSCYCVGWFRQAPGKELEFVASITQHAFRTYYADSVKGRFTISRDDAQNTVYLQMNSLEPEDTAVYYCAAAETPNILVHESYWGQGTQVTVSS
B7: SR12_f3 (VHH)
VHH: QVQLVVSGGGLVQAGDSLRLSCAASGAIVHVFAMGWFRQAPGKEREFVASINLDNDATNYADSVKGRFTISRDDARNTVYLQMNSLKPEDTAVYYCNATIFMDSDLGDYWGRGTQVTVSS
B8: SR12_t6 (VHH)
VHH: B7 VHH with A57V, M102T, D105G
B9: SR4_c1 (VHH)
VHH: EVQLVESGGGLVQAGDSLRLSCAASGFQLSCYCMGWFRQAPGKEREFVASITQHAFRTYYADSVKGRFTISRDDARNTVYLQMNSLKPEDTAVYYCAAAETPNILVHENYWGQGTQVTVSS
B10: SR4_t4 (VHH)
VHH: B9 VHH with E6V, G9R, M34V
B11: SR4_t9 (VHH)
VHH: B6 VHH with T7S, V23A, Q76R, E87K
B12: SR4_t6 (VHH)
VHH: B9 VHH with E6V, G9R, G10V, M34V, N109S
B13: SR4_f3 (VHH)
VHH: B9 VHH with E6V, G9R, M34V, H107Y
B14: SR1_t2 (VHH)
VHH: EVRLVESGGGLVLAGDSLRLSCAASGKTGRSVIMGWFRQAPDKEREFVATITRGDDTTNYADSVKGRFTISRDDARNTVYLQMNSLKPEDTAVYYCAAVYFVNDCIVDYWGQGTQVTVSS
B15: SR2_c3 (VHH)
VHH: EVQLVESGGGLVQAGDSLRLSCAASGAFSSNVFMGWFRQAPGKEREFVASITPHHAVTDYADSVRGRFSISADSAKNTVYLQMNSLKPEDTAVYYCAAAIYRNATVLDYWGQGTQVTVSS
B16: SR2_t5 (VHH)
VHH: B15 VHH with E1Q, S74T
B17: SR2_c4 (VHH)
VHH: B15 VHH with R102C

Target: recombinant RBD (ThermoFisher, RP-87678) (SARS-CoV-2, Wuhan-Hu-1 assumed, UniProt P0DTC2)
Assay: BLI
Details: one partner purified

B1 was tested. Which Kd did it give?
Its Kd is 2.18 nM.

Target: SARS-CoV-2 spike RBD with C-terminal 3xFlag tag and N-terminal signal peptide of the spike (RBD-3xFlag) (SARS-CoV-2, Wuhan-Hu-1 type (wild type), UniProt P0DTC2)
Assay: not given
Details: not given

Does B2 bind?
Result: binds

Does B3 bind?
Result: binds

Does B4 bind?
Result: binds

Does B5 bind?
Result: binds

Does B6 bind?
Result: binds

Does B7 bind?
Result: binds

Does B8 bind?
Result: binds

Does B9 bind?
Result: binds

Does B10 bind?
Result: binds

Does B11 bind?
Result: binds

Does B12 bind?
Result: binds

Does B13 bind?
Result: binds

Does B14 bind?
Result: binds

Does B15 bind?
Result: binds

Does B16 bind?
Result: binds

Does B17 bind?
Result: binds
